Legend:
[1] = tested on: stage III or IV of ovarian cancer; settings: ovarian cancer stage III or IV after initial surgery; bevacizumab added to carboplatin and paclitaxel versus without; cited from earlier work
[2] = tested on: metastatic colorectal cancer patients; test: Retrospective analysis of anti-angiogenic therapy (bevacizumab) in metastatic colorectal cancer by TME phenotype; assay type: in vivo, human; settings: A and IS patients
Description: The analysis includes 60 colorectal cancer tumor samples.
To test if TME phenotypes correlate with clinical outcomes when patients are treated with an angiogenesis inhibitor, tumor stroma RNA gene signatures are analyzed from archival tissues collected from 60 colorectal cancer patients (30 left-sided, 30 right-sided) using an ANN classifier such as the TME Panel-1 classifier. The correlation between each TME phenotype is tested against clinical outcome data. In A and IS patients, the use of bevacizumab confers gains in comparison to patients classified to IA and ID TME phenotypes: in A and IS patients median PFS and OS shifts to 15 months and 39 months, respectively. Progression-free survival and OS data in IA and ID patients are consistent with historical values. Overall, the A and IS TME phenotypes correlate specifically with improved clinical outcomes with angiogenesis inhibitors and has a predictive effect with respect to PFS.

mCRC = settings: phase II single arm study; cited from earlier work
MDSC functions = settings: pre-clinical models; cited from earlier work
[3] = tested on: non-small cell lung cancer (NSCLC); test: Retrospective ANN analysis of Phase 3 trial of tislelizumab with pemetrexed and a platinum agent; assay type: in vivo, human; settings: biomarker positive group (IA or IS)
Text: A retrospective analysis of 100 RNA signatures from a Phase 3 clinical trial of non-small cell lung cancer (NSCLC) with the anti-PD-1 checkpoint inhibitor tislelizumab in combination with the chemotherapeutic agents pemetrexed and a platinum agent (cisplatin or carboplatin) is run using the ANN method. […] After the retrospective ANN analysis, the biomarker positive group (IA or IS) is shown to have a PFS of 15.0 months with the combination therapy of tislelizumab and chemotherapy.

[4] = tested on: non-small cell lung cancer (NSCLC); settings: cited from earlier work
[5] = tested on: advanced solid tumors in colorectal, triple-negative breast cancer, gastric, and ovarian cancers; test: Phase 2 open-label basket study of navicixizumab monotherapy or with paclitaxel or irinotecan, retrospective analysis by TME phenotype; assay type: in vivo, human; settings: combined A and IS groups
Description: A retrospective analysis of a signal-finding Phase 2 clinical trial is conducted. Patient samples from thirty patients in a phase 2, multicenter, open-label basket study of navicixizumab monotherapy or in combination with the chemotherapeutics paclitaxel or irinotecan in patients with advanced solid tumors in colorectal, triple-negative breast cancer, gastric, and ovarian cancers. Patients in the combined A and IS groups that received navicixizumab monotherapy have an ORR greater than 40%. Patients in the combined A and IS groups that receive navicixizumab and chemotherapy have an ORR greater than 50%.

[6] = tested on: colorectal cancer patients; test: Clinical trial of navicixizumab and chemotherapy in colorectal cancer, outcome by TME phenotype; assay type: in vivo, human
Description: A clinical trial is run to show benefit of anti-angiogenesis therapy in CRC by identifying patients based on their stromal phenotypes. RNA gene signatures are analyzed from biopsy samples prior to treatment with navicixizumab and chemotherapy (such as paclitaxel, FOLFOX, FOLFIRI, etc.). The stromal phenotypes are correlated with ORR, PFS, and OS. The analysis includes 40 colorectal cancer patients with treated with navicizumab and chemotherapy in the first-line setting.

bevacizumab
Progression-free survival [1]: 18 months
median OS [2]: 39 months
median PFS [2]: 15 months

carboplatin and paclitaxel
Progression-free survival [1]: 13 months

ramucirumab plus FOLFIRI: anti-angiogenic ramucirumab plus the chemotherapeutic FOLFIRI
ORR (mCRC): 58%
OS (mCRC): 20.4 mos
PFS (mCRC): 11.5 months

CCCc1nn(C)c2c(=O)[nH]c(-c3cc(S(=O)(=O)N4CCN(C)CC4)ccc3OCC)nc12 [sildenafil]
effect on MDSC functions (MDSC functions): significantly inhibited the MDSC functions

B1: tislelizumab plus chemotherapy: anti-PD-1 checkpoint inhibitor tislelizumab with pemetrexed and a platinum agent (cisplatin or carboplatin) (antibody, chains of the INN, looked up)
heavy: QVQLQESGPGLVKPSETLSLTCTVSGFSLTSYGVHWIRQPPGKGLEWIGVIYADGSTNYNPSLKSRVTISKDTSKNQVSLKLSSVTAADTAVYYCARAYGNYWYIDVWGQGTTVTVSSASTKGPSVFPLAPCSRSTSESTAALGCLVKDYFPEPVTVSWNSGALTSGVHTFPAVLQSSGLYSLSSVVTVPSSSLGTKTYTCNVDHKPSNTKVDKRVESKYGPPCPPCPAPPVAGGPSVFLFPPKPKDTLMISRTPEVTCVVVAVSQEDPEVQFNWYVDGVEVHNAKTKPREEQFNSTYRVVSVLTVVHQDWLNGKEYKCKVSNKGLPSSIEKTISKAKGQPREPQVYTLPPSQEEMTKNQVSLTCLVKGFYPSDIAVEWESNGQPENNYKTTPPVLDSDGSFFLYSKLTVDKSRWQEGNVFSCSVMHEALHNHYTQKSLSLSLG
light: DIVMTQSPDSLAVSLGERATINCKSSESVSNDVAWYQQKPGQPPKLLINYAFHRFTGVPDRFSGSGYGTDFTLTISSLQAEDVAVYYCHQAYSSPYTFGQGTKLEIKRTVAAPSVFIFPPSDEQLKSGTASVVCLLNNFYPREAKVQWKVDNALQSGNSQESVTEQDSKDSTYSLSSTLTLSKADYEKHKVYACEVTHQGLSSPVTKSFNRGEC
modifications: plus pemetrexed and platinum chemotherapy
PFS [3]: 15.0 months
hazard ratio (PFS) ([4]; tislelizumab plus chemotherapy versus chemotherapy alone): 0.645
median PFS ([4]; without stratification into stromal phenotypes): 9.7 mo

B2: navicixizumab (antibody, chains of the INN, looked up, V domains shown)
VH: QVQLVQSGAEVKKPGASVKISCKASGYSFTAYYIHWVKQAPGQGLEWIGYISNYNRATNYNQKFKGRVTFTTDTSTSTAYMELRSLRSDDTAVYYCARDYDYDVGMDYWGQGTLVTVSS
VL: DIVMTQSPDSLAVSLGERATISCRASESVDNYGISFMKWFQQKPGQPPKLLIYAASNQGSGVPDRFSGSGSGTDFTLTISSLQAEDVAVYYCQQSKEVPWTFGGGTKVEIK
VH2: QVQLVQSGAEVKKPGASVKVSCKASGYTFTNYWMHWVRQAPGQGLEWMGDINPSNGRTSYKEKFKRRVTLSVDKSSSTAYMELSSLRSEDTAVYFCTIHYDDKYYPLMDYWGQGTLVTVSS
VL2: B2 VL
notes: anti-VEGF/anti-DLL4 bispecific antibody
ORR [5]: greater than 40%

B3: navicixizumab and chemotherapy: anti-VEGF/anti-DLL4 bispecific antibody navicixizumab with chemotherapy (such as paclitaxel, FOLFOX, FOLFIRI, irinotecan) (antibody, chains of the INN, looked up, V domains shown)
VH: B2 VH
VL: B2 VL
VH2: B2 VH2
VL2: B2 VL
modifications: plus chemotherapy
ORR [5]: greater than 50%
ORR (%) ([6]; A (n = 10)): 90%
OS (months) ([6]; A (n = 10)): 26 months
PFS (months) ([6]; A (n = 10)): 15 months
ORR (%) ([6]; IA (n = 10)): 30%
OS (months) ([6]; IA (n = 10)): 15 months
PFS (months) ([6]; IA (n = 10)): 10 months
ORR (%) ([6]; ID (n = 10)): 45%
OS (months) ([6]; ID (n = 10)): 20 months
PFS (months) ([6]; ID (n = 10)): 13 months
ORR (%) ([6]; IS (n = 10)): 80%
OS (months) ([6]; IS (n = 10)): 25 months
PFS (months) ([6]; IS (n = 10)): 16 months

Reference: US20240344138A1, “TARGETED THERAPIES IN CANCER” (Feng Biosciences, Inc, priority 2021, published 2024)
